Test results as given in US20160355553A1 (Janssen / Centocor, published 2016).

Assays:
H3 Mini-HA cluster 1 = H3 Mini-HA cluster 1 (influenza A virus H3N2, UniProt O11283 17-566); experiment: FACS on HEK293F [D00010 FIG. 8B]
H3 Mini-HA cluster 1+2 = H3 Mini-HA cluster 1+2 (influenza A virus H3N2, UniProt O11283 17-566); experiment: FACS on HEK293F [D00010 FIG. 8B]
H3 Mini-HA cluster 1+3 = H3 Mini-HA cluster 1+3 (influenza A virus H3N2, UniProt O11283 17-566); experiment: FACS on HEK293F [D00010 FIG. 8B]
H3 Mini-HA cluster 1+4 = H3 Mini-HA cluster 1+4 (influenza A virus H3N2, UniProt O11283 17-566); experiment: FACS on HEK293F [D00010 FIG. 8B]
H3 Mini-HA cluster 1+6 = H3 Mini-HA cluster 1+6 (influenza A virus H3N2, UniProt O11283 17-566); experiment: FACS on HEK293F [D00010 FIG. 8B]
H3 Mini-HA cluster 1+7 = H3 Mini-HA cluster 1+7 (influenza A virus H3N2, UniProt O11283 17-566); experiment: FACS on HEK293F [D00010 FIG. 8B]
H3 Mini-HA cluster 1+8 = H3 Mini-HA cluster 1+8 (influenza A virus H3N2, UniProt O11283 17-566); experiment: FACS on HEK293F [D00010 FIG. 8B]
H3-mini2 = H3-mini2 (influenza A virus H3N2, UniProt O11283 17-566); experiment: FACS on HEK293F [D00012 FIG. 9B]
H3-mini2-cl9+10 = H3-mini2-cl9+10 (influenza A virus H3N2, UniProt O11283 17-566); experiment: FACS on HEK293F [D00012 FIG. 9B]
H3-mini2-cl9+11 = H3-mini2-cl9+11 (influenza A virus H3N2, UniProt O11283 17-566); experiment: FACS on HEK293F [D00012 FIG. 9B]
H3-mini2-cl9+10+11 = H3-mini2-cl9+10+11 (influenza A virus H3N2, UniProt O11283 17-566); experiment: FACS on HEK293F [D00012 FIG. 9B]
H3-mini2-cl9+10+11-tri = H3-mini2-cl9+10+11-tri (influenza A virus H3N2); experiment: FACS on HEK293F [D00012 FIG. 9B]
H3mini2-cl9+10+11-GCN4 = H3mini2-cl9+10+11-GCN4 (influenza A virus H3N2); experiment: FACS on HEK293F [D00012 FIG. 9B]
H3-mini2-cl9+10+11+12 = H3-mini2-cl9+10+11+12 (influenza A virus H3N2, UniProt O11283 17-566); experiment: FACS on HEK293F [D00012 FIG. 9B]
H3-mini2-cl9+10+12 = H3-mini2-cl9+10+12 (influenza A virus H3N2, UniProt O11283 17-566); experiment: FACS on HEK293F [D00012 FIG. 9B]
[1] = molecular target: H3-mini2-cl9+10+11+12-GCN4 (influenza A virus H3N2, UniProt O11283 17-566); experiment: FACS on HEK293F [D00012 FIG. 9B]
[2] = molecular target: H3-mini2-cl9+10+11+12-tri (influenza A virus H3N2, UniProt O11283 17-566); experiment: FACS on HEK293F [D00012 FIG. 9B]
H3-mini2-cl9+13 = H3-mini2-cl9+13 (influenza A virus H3N2, UniProt O11283 17-566); experiment: FACS on HEK293F [D00012 FIG. 9B]
H3-mini2-cl9+10+11+13 = H3-mini2-cl9+10+11+13 (influenza A virus H3N2, UniProt O11283 17-566); experiment: FACS on HEK293F [D00012 FIG. 9B]
[3] = molecular target: H3-mini2-cl9+10+11+13-GCN4 (influenza A virus H3N2); experiment: FACS on HEK293F [D00012 FIG. 9B]
[4] = molecular target: H3-mini2-cl9+10+11+13-tri (influenza A virus H3N2); experiment: FACS on HEK293F [D00012 FIG. 9B]
H3-mini3-cl9+10+11+12+14 = H3-mini3-cl9+10+11+12+14 (influenza A virus H3N2, UniProt O11283 17-566); experiment: FACS on HEK293F [D00012 FIG. 9B]
H3-mini4-cl9+10+11+12+14 = H3-mini4-cl9+10+11+12+14 (influenza A virus H3N2, UniProt O11283 17-566); experiment: FACS on HEK293F [D00012 FIG. 9B]
[5] = molecular target: HK68 H3m2-cl9+10+11+13-tri (influenza A virus H3N2, UniProt Q91MA7 17-566); experiment: FACS on HEK293F [D00014 FIG. 10B]
[6] = molecular target: HK68 H3m2-cl9+10+11+13-GCN4 (influenza A virus H3N2, UniProt Q91MA7 17-566); experiment: FACS on HEK293F [D00014 FIG. 10B]
[7] = molecular target: H3 Full-length A/Hong Kong/1/1968 (influenza A virus H3N2, UniProt Q91MA7 17-566); experiment: FACS on HEK293F [D00014 FIG. 10B]
HK68 H3m2-cl9+10 = HK68 H3m2-cl9+10 (influenza A virus H3N2, UniProt Q91MA7 17-566); experiment: FACS on HEK293F [D00014 FIG. 10B]

Measured: binding result

B1: CR9114 (antibody, V domains shown)
VH: QVQLVQSGAEVKKPGSSVKVSCKSSGGTSNNYAISWVRQAPGQGLDWMGGISPIFGSTAYAQKFQGRVTISADIFSNTAYMELNSLTSEDTAVYFCARHGNYYYYSGMDVWGQGTTVTVSS
VL: SYVLTQPPAVSGTPGQRVTISCSGSDSNIGRRSVNWYQQFPGTAPKLLIYSNDQRPSVVPDRFSGSKSGTSASLAISGLQSEDEAEYYCAAWDDSLKGAVFGGGTQLTVL
no binding (tested: 5 ug/ml): H3 Mini-HA cluster 1 | H3 Mini-HA cluster 1+2 | H3 Mini-HA cluster 1+3 | H3 Mini-HA cluster 1+4 | H3 Mini-HA cluster 1+6 | H3 Mini-HA cluster 1+7 | H3 Mini-HA cluster 1+8 | H3-mini2 | H3-mini2-cl9+10 | H3-mini2-cl9+11 | H3-mini2-cl9+10+11 | H3-mini2-cl9+10+11-tri | H3mini2-cl9+10+11-GCN4 | H3-mini2-cl9+10+11+12 | H3-mini2-cl9+10+12 | [1] | [2] | H3-mini2-cl9+13 | H3-mini2-cl9+10+11+13 | [3] | [4] | H3-mini3-cl9+10+11+12+14 | H3-mini4-cl9+10+11+12+14

B2: CR8057 (antibody, V domains shown)
VH: EVQLVESGGGLVQPGGSLRLSCAASGFTDSVIFMSWVRQAPGKGLECVSIIYIDDSTYYADSVKGRFTISRHNSMGTVFLEMNSLRPDDTAVYYCATESGDFGDQTGPYHYYAMDV
VL: QSALTQPASVSGSPGQSITISCTGSSGDIGGYNAVSWYQHHPGKAPKLMIYEVTSRPSGVSDRFSASRSGDTASLTVSGLQAEDEAHYYCCSFADSNILI
no binding (tested: 5 ug/ml): H3 Mini-HA cluster 1 | H3 Mini-HA cluster 1+2 | H3 Mini-HA cluster 1+3 | H3 Mini-HA cluster 1+4 | H3 Mini-HA cluster 1+6 | H3 Mini-HA cluster 1+7 | H3 Mini-HA cluster 1+8 | H3-mini2 | H3-mini2-cl9+10 | H3-mini2-cl9+11 | H3-mini2-cl9+10+11 | H3-mini2-cl9+10+11-tri | H3mini2-cl9+10+11-GCN4 | H3-mini2-cl9+10+11+12 | H3-mini2-cl9+10+12 | [1] | [2] | H3-mini2-cl9+13 | H3-mini2-cl9+10+11+13 | [3] | [4] | H3-mini3-cl9+10+11+12+14 | H3-mini4-cl9+10+11+12+14 | [5] | [6] | [7] | HK68 H3m2-cl9+10
